Experimental data reported in patent publication US20020098189A1 (AstraZeneca / MedImmune, published 2002).
Substitutions are numbered along the chain they refer to.

B1: Clone 24 (IgG) (antibody, V domains shown)
VH: QVTLRESGPALVKPTQTLTLTCTFSGFSLSTAGMSVGWIRQPPGKALEWLADIWWDGKKHYNPSLKDRLTISKDTSKNQVVLKVTNMDPADTATYYCARDMIFNWYFDVWGQGTTVTVSS
VL: DIQMTQSPSTLSASVGDRVTITCSLSSRVGYMHWYQQKPGKAPKLLIYDTFKLSSGVPSRFSGSGSGTEFTLTISSLQPDDFATYYCFQGSGYPFTFGGGTKVEIKR
B2: Clone 20 (IgG) (antibody, V domains shown)
VH: B1 VH with G57D, H60S
VL: B1 VL with L25P, F51R, K52Y, L53Q
B3: Clone 15 (Fab) (Fab, V domains shown)
VH: B1 VH with H60S, W105F
VL: DIQMTQSPSTLSASVGDRVTITCSLSSRVGYMHWYQQKPGKAPKLLIYDTMYQSSGVPSRFSGSGSGTEFTLTISSLQPDDFATYYCFQGSGYPFTFGGGTKVEIK
B4: Clone 19 (IgG) (antibody, V domains shown)
VH: B1 VH with G57D, W105F
VL: B1 VL with L25A, K52F, S54D
B5: Clone 18 (IgG) (antibody, V domains shown)
VH: B1 VH with H60S, W105F
VL: B1 VL with S24L, L25P, F51M, K52Y, L53Q
B6: Reference clone (Fab fragment with the sequences of FIG. 2 and the CDRs of Table 1) (Fab, V domains shown)
VH: B1 VH with A32S, G57D, H60D, D67S, D100S, F103T
VL: B3 VL with L25A, R28S, M51S, Y52K, Q53L, S54A
notes: also called basic structure
B7: Clone 29 (Fab) (Fab, V domains shown)
VH: B1 VH with G57D, W105F
VL: B3 VL with L25A, M51F, Y52F, Q53L, S54D
B8: Clone 27 (Fab) (Fab, V domains shown)
VH: B1 VH with H60S, D67S, W105F
VL: B3 VL with S24L, L25P
B9: Clone 22 (IgG) (antibody, V domains shown)
VH: B1 VH with A32P, G57D, W105F
VL: B1 VL with F51R, K52G, S54P
B10: Clone 26 (IgG) (antibody, V domains shown)
VH: B1 VH with H60S, W105F
VL: B1 VL with F51M, K52Y, L53Q
B11: Clone 28 (Fab) (Fab, V domains shown)
VH: B1 VH with G57D, H60S
VL: B3 VL with L25P, M51R
B12: Clone 21 (IgG) (antibody, V domains shown)
VH: B1 VH with A32P, G57D, W105F
VL: B1 VL with K52Y
B13: Clone 25 (IgG) (antibody, V domains shown)
VH: B1 VH with H60D, W105F
VL: B1 VL with L25A
B14: Clone 23 (IgG) (antibody, V domains shown)
VH: B1 VH with A32P
VL: B1 VL with L25P, F51M, K52R, S54A
B15: MEDI-493 (clone 16), IgG1 (COR)/kappa (K102) humanized MAb (antibody, V domains shown)
VH: B1 VH with A32S, G57D, H60D, D67S, D100S, F103T, Q112A
VL: B3 VL with S24K, L25C, S26Q, S27L, R28S, M51S, Y52K, Q53L, S54A, V103L
B16: Clone 7 (Fab) (Fab, V domains shown)
VH: B1 VH with G57D, H60D, D67S, F103T, W105F
VL: B3 VL with L25A, M51F, Y52K, Q53L, S54A
B17: Clone 13 (Fab) (Fab, V domains shown)
VH: B1 VH with H60D, W105F
VL: B3 VL with L25A, M51F, Y52K, Q53L
B18: Clone 12 (Fab) (Fab, V domains shown)
VH: B1 VH with W105F
VL: B3 VL with M51F, Y52K, Q53L
B19: Clone 2 (Fab) (Fab, V domains shown)
VH: B1 VH with G57D, H60D, D67S
VL: B3 VL with L25A, R28S, M51F, Y52K, Q53L, S54A
B20: Clone 9 (Fab) (Fab, V domains shown)
VH: B1 VH with A32P, G57D, W105F
VL: B3 VL with M51F, Q53L
B21: Clone 11 (Fab) (Fab, V domains shown)
VH: B1 VH with A32P, W105F
VL: B3 VL with L25P, Y52R, Q53L, S54A
B22: Clone 4 (Fab) (Fab, V domains shown)
VH: B1 VH with G57D, H60D, D67S
VL: B3 VL with L25A, R28S, M51R, Q53L
notes: also called H3-3F4
B23: Clone 3 (Fab) (Fab, V domains shown)
VH: B1 VH with G57D, H60D, D67S
VL: B3 VL with L25A, R28S, M51Y, Y52K, S54T
B24: Clone 6 (Fab) (Fab, V domains shown)
VH: B1 VH with G57D, H60D, D67S, D100S, F103T, W105F
VL: B3 VL with L25A, R28S, M51F, Y52K, Q53L, S54A, G92F
B25: Clone 17 (whole monoclonal antibody) (antibody, V domains shown)
VH: B1 VH with G57D, H60D, D67S, D100S, F103T, W105F, Q112A
VL: B3 VL with L25A, R28S, M51F, Y52K, Q53L, S54A, G92F, V103L
B26: Clone 10 (Fab) (Fab, V domains shown)
VH: B1 VH with A32P, W105F
VL: B3 VL with M51R, Y52G, Q53L, S54P
B27: Clone 14 (Fab) (Fab, V domains shown)
VH: B1 VH with G57D
VL: B3 VL with L25P, M51Y, Y52R, Q53H
B28: Clone 8 (Fab) (Fab, V domains shown)
VH: B1 VH with G57D, H60D, D67S, F103T, W105F
VL: B3 VL with L25A, R28S, M51F, Y52R, Q53L, S54A
B29: Clone 5 (Fab) (Fab, V domains shown)
VH: B1 VH with G57D, H60D, D67S, F103T, W105F
VL: B3 VL with L25A, R28S, M51F, Y52K, Q53L, S54A
B30: Clone 1 (Fab) (Fab, V domains shown)
VH: B1 VH with G57D, H60D, D67S, F103T, W105F
VL: B3 VL with L25A, R28S, M51F, Y52K, Q53L, S54T

Legend:
[1] = substrate: F protein of respiratory syncytial virus (RSV-Long strain), on infectious virus (respiratory syncytial virus (RSV-Long strain)) (UniProt P12568); experiment: cell-based or functional assay
Chain of F protein of respiratory syncytial virus (RSV-Long strain), on infectious virus (respiratory syncytial virus (RSV-Long strain)) (P12568 26-574): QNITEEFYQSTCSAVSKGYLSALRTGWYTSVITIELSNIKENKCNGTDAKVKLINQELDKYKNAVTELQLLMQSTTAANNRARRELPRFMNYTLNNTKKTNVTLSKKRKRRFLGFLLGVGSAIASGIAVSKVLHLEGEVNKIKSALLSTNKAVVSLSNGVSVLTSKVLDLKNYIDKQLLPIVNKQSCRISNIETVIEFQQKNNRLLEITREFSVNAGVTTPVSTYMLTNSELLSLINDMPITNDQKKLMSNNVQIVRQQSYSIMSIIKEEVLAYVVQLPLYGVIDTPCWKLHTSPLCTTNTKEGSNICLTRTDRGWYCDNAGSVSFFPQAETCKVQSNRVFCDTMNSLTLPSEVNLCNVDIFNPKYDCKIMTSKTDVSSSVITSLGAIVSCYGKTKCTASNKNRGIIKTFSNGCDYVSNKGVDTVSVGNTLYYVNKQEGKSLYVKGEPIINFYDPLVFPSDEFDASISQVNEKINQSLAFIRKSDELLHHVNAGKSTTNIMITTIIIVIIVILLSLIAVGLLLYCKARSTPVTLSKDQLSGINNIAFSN

[2] = molecular target: T1, F protein of respiratory syncytial virus (RSV-Long strain), on infectious virus (respiratory syncytial virus (RSV-Long …, UniProt P12568 26-574)); experiment: cell-based or functional assay
[3] = molecular target: T1, F protein of respiratory syncytial …; experiment: cell-based or functional assay; remark: listed apart in the source
[4] = molecular target: T2, C-terminal truncated RSV F protein, secreted from recombinant baculovirus-infected cells (respiratory syncytial virus (strain not …, UniProt P03420 26-526)); experiment: SPR (BIAcore), F protein immobilized, Fab injected
T2 construct: also called F antigen of RSV
T2 sequence (P03420 26-526): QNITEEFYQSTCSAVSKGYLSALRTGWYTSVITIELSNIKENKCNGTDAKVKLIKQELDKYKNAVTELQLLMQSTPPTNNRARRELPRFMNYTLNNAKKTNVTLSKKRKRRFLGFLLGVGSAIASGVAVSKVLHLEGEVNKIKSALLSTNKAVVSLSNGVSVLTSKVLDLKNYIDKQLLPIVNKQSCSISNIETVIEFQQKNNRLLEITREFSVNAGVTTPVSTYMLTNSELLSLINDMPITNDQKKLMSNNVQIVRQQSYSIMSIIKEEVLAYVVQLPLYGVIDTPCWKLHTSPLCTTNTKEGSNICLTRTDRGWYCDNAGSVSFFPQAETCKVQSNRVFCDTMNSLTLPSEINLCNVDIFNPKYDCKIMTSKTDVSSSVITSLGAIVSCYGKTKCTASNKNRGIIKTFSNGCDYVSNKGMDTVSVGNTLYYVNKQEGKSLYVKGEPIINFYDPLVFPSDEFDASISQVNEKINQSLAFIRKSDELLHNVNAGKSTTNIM
Procedure: A typical kinetic study involved the injection of 35 ml of Mab at varying concentrations (25-300 nM) in PBS buffer containing 0.05% Tween-20 (PBS/Tween). The flow rate was maintained at 5 ml/min, giving a 7 min binding phase. Following the injection of Mab, the flow was exchanged with PBS/Tween buffer for 30 min for determining the rate of dissociation. The sensor chip was regenerated between cycles with a 2 min pulse of 10 mM HCI.
More specifically, for measurement of kassoc (or kₒₙ), F protein was directly immobilized by the EDC/NHS method (EDC=N-ethyl-N′-[3-diethylaminopropyl)-carbodiimide). Briefly, 4 μg/ml of F protein in 10 mM NaOAc, pH 4.0 was prepared and about a 30 μl injection gives about 500 RU (response units) of immobilized F protein under the above referenced conditions. The blank flow cell (VnR immobilized-CM dextran surface) was subtracted for kinetic analysis. The column could be regenerated using 100 mM HCI (with 72 seconds of contact time being required for full regeneration). […] The dissociation phase was analyzed from 230 seconds (30 seconds after start of the dissociation phase) to 900 seconds. Kinetics were analyzed by 1:1 Langmuir fitting (global fitting). Measurements were done in HBS-EP buffer (10 mM HEPES, pH 7.4, 150 mM NaCl, 3 mM EDTA, 0.005% (v/v) Surfactant P20.
For measuring k_{off (or k}dissoc) the following conditions were employed. Briefly, 4100 RU of F protein were immobilized (as above) with CM-dextran used as the blank. Here, 3000 RU of Fab was bound (with dissociated Fab high enough to offset machine fluctuation). […] The dissociation phase was 6-15 hours at a flow rate of 5 μl/min.

[5] = molecular target: T2, C-terminal truncated RSV F protein, …; experiment: SPR (BIAcore), F protein immobilized, whole antibody injected

| Binder | Mean IC50 µg/ml, RSV microneutralization [1] | Mean IC50 (Control) µg/ml, RSV microneutralization [1] | EC50 (nM), RSV microneutralization [2] | koff [4] | kon [4] | other results |
| --- | --- | --- | --- | --- | --- | --- |
| B1 | 0.0625 µg/mL | 0.0645 µg/mL |  |  |  |  |
| B2 | 0.0337 µg/mL | 0.0383 µg/mL |  |  |  |  |
| B3 |  |  | 0.56 nM | 0.00028 s⁻¹ | 781000 M⁻¹ s⁻¹ | Mean IC50 µg/ml, RSV microneutralization [3]: 0.0264 µg/mL; Mean IC50 (Control) µg/ml, RSV microneutralization [3]: 0.0258 µg/mL |
| B4 | 0.0171 µg/mL | 0.0154 µg/mL |  |  |  |  |
| B5 | 0.0342 µg/mL | 0.0354 µg/mL |  |  |  |  |
| B6 |  |  | 3.52 nM | 0.00065 s⁻¹ | 185000 M⁻¹ s⁻¹ |  |
| B7 | 0.0414 µg/mL | 0.0411 µg/mL |  |  |  |  |
| B8 | 0.0179 µg/mL | 0.0171 µg/mL |  |  |  |  |
| B9 | 0.0242 µg/mL | 0.0235 µg/mL |  |  |  |  |
| B10 | 0.0376 µg/mL | 0.0375 µg/mL |  |  |  |  |
| B11 | 0.177 µg/mL | 0.157 µg/mL |  |  |  |  |
| B12 | 0.0231 µg/mL | 0.0223 µg/mL |  |  |  |  |
| B13 | 0.0357 µg/mL | 0.0354 µg/mL |  |  |  |  |
| B14 | 0.0217 µg/mL | 0.0289 µg/mL |  |  |  |  |
| B15 |  |  | 6.12 nM |  |  | Mean IC50 µg/ml, RSV microneutralization [3]: 0.453 µg/mL; Mean IC50 (Control) µg/ml, RSV microneutralization [3]: 0.535 µg/mL; koff [5]: 0.000735 s⁻¹; kon [5]: 204000 M⁻¹ s⁻¹ |
| B16 |  |  | 1.59 nM | 0.000251 s⁻¹ | 370000 M⁻¹ s⁻¹ |  |
| B17 |  |  | 0.81 nM | 0.00023 s⁻¹ | 743000 M⁻¹ s⁻¹ | Mean IC50 µg/ml, RSV microneutralization [3]: 0.0287 µg/mL; Mean IC50 (Control) µg/ml, RSV microneutralization [3]: 0.031 µg/mL |
| B18 |  |  | 3.24 nM | 0.000453 s⁻¹ | 790000 M⁻¹ s⁻¹ | Mean IC50 µg/ml, RSV microneutralization [3]: 0.157 µg/mL; Mean IC50 (Control) µg/ml, RSV microneutralization [3]: 0.125 µg/mL |
| B19 |  |  | 5.05 nM | 0.000422 s⁻¹ | 531000 M⁻¹ s⁻¹ |  |
| B20 |  |  | 0.29 nM | 0.000282 s⁻¹ | 663000 M⁻¹ s⁻¹ | Mean IC50 µg/ml, RSV microneutralization [3]: 0.0407 µg/mL; Mean IC50 (Control) µg/ml, RSV microneutralization [3]: 0.0326 µg/mL |
| B21 |  |  | 20.9 nM | 0.000717 s⁻¹ | 571000 M⁻¹ s⁻¹ | Mean IC50 µg/ml, RSV microneutralization [3]: > 1 µg/mL; Mean IC50 (Control) µg/ml, RSV microneutralization [3]: > 1 µg/mL |
| B22 |  |  | 3.55 nM | 0.000462 s⁻¹ | 757000 M⁻¹ s⁻¹ |  |
| B23 |  |  | 4.7 nM | 0.000422 s⁻¹ | 605000 M⁻¹ s⁻¹ |  |
| B24 |  |  | 2.88 nM | 0.00032 s⁻¹ | 185000 M⁻¹ s⁻¹ |  |
| B25 |  |  | 2.7 nM |  |  | koff [5]: 0.000249 s⁻¹; kon [5]: 109000 M⁻¹ s⁻¹ |
| B26 |  |  | 1.06 nM | 0.000299 s⁻¹ | 527000 M⁻¹ s⁻¹ | Mean IC50 µg/ml, RSV microneutralization [3]: 0.0464 µg/mL; Mean IC50 (Control) µg/ml, RSV microneutralization [3]: 0.0351 µg/mL |
| B27 |  |  | 2.23 nM | 0.00025 s⁻¹ | 735000 M⁻¹ s⁻¹ | Mean IC50 µg/ml, RSV microneutralization [3]: 0.12 µg/mL; Mean IC50 (Control) µg/ml, RSV microneutralization [3]: 0.102 µg/mL |
| B28 |  |  | 2.67 nM | 0.000273 s⁻¹ | 375000 M⁻¹ s⁻¹ |  |
| B29 |  |  | 2.61 nM | 0.000306 s⁻¹ | 416000 M⁻¹ s⁻¹ |  |
| B30 |  |  | 2.26 nM | 0.000326 s⁻¹ | 365000 M⁻¹ s⁻¹ |  |
